The text below walks through data of patent publication US20170334962A1 (TEXAS A AND M UNIVERSITY SYSTEM, published 2017).

The target of test [1] is T1, recombinant soluble mouse FcRn (mouse, UniProt Q61559 22-290; P01887 21-119, limits assumed).
T1 construct: also called mFcRn
T1 sequence (looked up) 1: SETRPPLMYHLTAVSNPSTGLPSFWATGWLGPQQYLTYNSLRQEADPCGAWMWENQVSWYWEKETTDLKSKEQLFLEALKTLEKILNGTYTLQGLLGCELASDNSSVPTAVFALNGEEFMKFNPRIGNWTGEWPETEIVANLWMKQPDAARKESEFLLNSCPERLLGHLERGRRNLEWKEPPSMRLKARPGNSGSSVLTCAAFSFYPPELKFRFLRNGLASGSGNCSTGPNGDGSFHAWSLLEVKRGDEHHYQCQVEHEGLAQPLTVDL
T1 sequence (looked up) 2: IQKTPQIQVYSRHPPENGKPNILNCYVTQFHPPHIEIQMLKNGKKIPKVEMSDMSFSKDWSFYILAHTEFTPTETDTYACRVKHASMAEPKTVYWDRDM
The test can be described thus: SPR (BIAcore 2000), Fc-hinge immobilized by amine coupling, soluble mouse FcRn as analyte, pH 6.0; value for the higher affinity site; pH 6.0. On the procedure:
(§1) Equilibrium dissociation constants of WT and mutated mouse Fc-hinge fragments (IgG1-derived) for binding to recombinant mouse FcRn were determined using surface plasmon resonance and a BlAcore 2000. Mouse Fc-hinge fragments were immobilized by amine coupling chemistry (to a density of ˜250-850 RU) and BlAcore experiments carried out as described previously, using soluble mouse FcRn in Dulbecco's phosphate-buffered saline (DPBS) plus 0.01% Tween pH 6.0 or 7.4 as analyte. FcRn binds to two sites on IgG that are not equivalent. […] The data were processed as described previously.

Test [2] deals with T1, recombinant soluble mouse FcRn. The test can be described thus: SPR (BIAcore 2000), Fc-hinge immobilized by amine coupling, soluble mouse FcRn as analyte, pH 7.4; value for the higher affinity site. Here is the method:
as §1

Test [3] shares this target. The test can be described thus: SPR (BIAcore 2000), Fc-hinge immobilized by amine coupling, soluble mouse FcRn as analyte, pH 6.0; value for the higher affinity site. On the procedure: as §1
Test [4] shares this target. Nature of the test: SPR (BIAcore T200), fusion immobilized on a CM5 chip, mFcRn as analyte, pH 6.0; value for the higher affinity site; pH 6.0. On the procedure: (§2) Equilibrium dissociation constants (KDs) for the binding of Fc-OVA(323-339) (WT, TT-HN and H435A) to recombinant mouse FcRn were determined using surface plasmon resonance (BlAcore T200; GE Healthcare) and previously described methods. CM5 chips were coupled with recombinant Fc(WT)-OVA(323-339), Fc(TT-HN)-OVA(323-339), and Fc(H435A)-OVA(323-339) to densities of ˜500-900 RU followed by injection of mFcRn at various concentrations (1-2000 nM) at a flow rate of 10 μl/min using PBS (pH 6.0 or 7.4; Lonza), 0.01% (v/v) Tween-20 as running buffer. Flow cells were regenerated at the end of each cycle using 0.15 M NaCl, 0.1 M sodium bicarbonate (pH 8.5) buffer. FcRn binds to two sites on IgG-Fc that are not equivalent. […] The data were processed as described previously.

For test [5] the target is unchanged. Nature of the test: SPR (BIAcore T200), fusion immobilized on a CM5 chip, mFcRn as analyte, pH 6.0. On the procedure:
as §2

Test [6] has the same target. Nature of the test: SPR (BIAcore T200), fusion immobilized on a CM5 chip, mFcRn as analyte, pH 7.4; value for the higher affinity site. On the procedure:
as §2

Test [7] has the same target. Nature of the test: SPR (BIAcore T200), fusion immobilized on a CM5 chip, mFcRn as analyte, pH 6.0; value for the higher affinity site. Here is the method:
as §2

B1: WT mouse Fc-hinge fragment (IgG1-derived) (other, UniProt P01868 98-324, looked up)
chain: VPRDCGCKPCICTVPEVSSVFIFPPKPKDVLTITLTPKVTCVVVDISKDDPEVQFSWFVDDVEVHTAQTQPREEQFNSTFRSVSELPIMHQDWLNGKEFKCRVNSAAFPAPIEKTISKTKGRPKAPQVYTIPPPKEQMAKDKVSLTCMITDFFPEDITVEWQWNGQPAENYKNTQPIMNTNGSYFVYSKLNVQKSNWEAGNTFTCSVLHEGLHNHHTEKSLSHSPGK
notes: domain: Fc-hinge; Recombinant Fc-hinge made in CHO-S cells by methods analogous to those for the Fc-MBP fusions; also called WT Fc-hinge
B1: the Kd in test [1] amounted to 218 nM.

B2: m-set-1 mouse Fc-hinge fragment (IgG1-derived; T252L/T254S/T256F/E380A/H433K/N434F) (other, UniProt P01868 98-324, looked up)
chain: VPRDCGCKPCICTVPEVSSVFIFPPKPKDVLLISLFPKVTCVVVDISKDDPEVQFSWFVDDVEVHTAQTQPREEQFNSTFRSVSELPIMHQDWLNGKEFKCRVNSAAFPAPIEKTISKTKGRPKAPQVYTIPPPKEQMAKDKVSLTCMITDFFPEDITVAWQWNGQPAENYKNTQPIMNTNGSYFVYSKLNVQKSNWEAGNTFTCSVLHEGLKFHHTEKSLSHSPGK
notes: domain: Fc-hinge; also called mutation-set-1
B2: the Kd in test [2] turned out to be 115 nM; in test [3], 2.6 nM.

B3: m-set-2 mouse Fc-hinge fragment (IgG1-derived; T252Y/T256E/H433K/N434F) (other, UniProt P01868 98-324, looked up)
chain: VPRDCGCKPCICTVPEVSSVFIFPPKPKDVLYITLEPKVTCVVVDISKDDPEVQFSWFVDDVEVHTAQTQPREEQFNSTFRSVSELPIMHQDWLNGKEFKCRVNSAAFPAPIEKTISKTKGRPKAPQVYTIPPPKEQMAKDKVSLTCMITDFFPEDITVEWQWNGQPAENYKNTQPIMNTNGSYFVYSKLNVQKSNWEAGNTFTCSVLHEGLKFHHTEKSLSHSPGK
notes: domain: Fc-hinge; also called mutation-set-2; TT-HN
With B3, the Kd worked out at 20.4 nM in test [2] and 1.1 nM in test [3].

B4: mIgG1-Fc(WT)-OVA(323-339) (Fc fusion)
chain: VPRDCGCKPCICTVPEVSSVFIFPPKPKDVLTITLTPKVTCVVVDISKDDPEVQFSWFVDDVEVHTAQTQPREEQFNSTFRSVSELPIMHQDWLNGKEFKCRVNSAAFPAPIEKTISKTKGRPKAPQVYTIPPPKEQMAKDKVSLTCMITDFFPEDITVEWQWNGQPAENYKNTQPIMDTDGSYFVYSKLNVQKSNWEAGNTFTCSVLHEGLHNHHTEKSLSHSPGKGSGGISQAVHAAHAEINEAGRGSGHHHHHH
As for B4, in test [4], the equilibrium dissociation constant (Kd) was found to be 300 nM.

B5: mIgG1-Fc(H435A)-OVA(323-339) (Fc fusion)
chain: VPRDCGCKPCICTVPEVSSVFIFPPKPKDVLTITLTPKVTCVVVDISKDDPEVQFSWFVDDVEVHTAQTQPREEQFNSTFRSVSELPIMHQDWLNGKEFKCRVNSAAFPAPIEKTISKTKGRPKAPQVYTIPPPKEQMAKDKVSLTCMITDFFPEDITVEWQWNGQPAENYKNTQPIMDTDGSYFVYSKLNVQKSNWEAGNTFTCSVLHEGLHNAHTEKSLSHSPGKGSGGISQAVHAAHAEINEAGRGSGHHHHHH
notes: The limits of the leader are inferred as for m4
As for B5, the binding result in test [5] is given as “no binding (tested: mFcRn injected at 1-2000 nM)”.

B6: mIgG1-Fc(TT-HN)-OVA(323-339) (Fc fusion)
chain: VPRDCGCKPCICTVPEVSSVFIFPPKPKDVLYITLEPKVTCVVVDISKDDPEVQFSWFVDDVEVHTAQTQPREEQFNSTFRSVSELPIMHQDWLNGKEFKCRVNSAAFPAPIEKTISKTKGRPKAPQVYTIPPPKEQMAKDKVSLTCMITDFFPEDITVEWQWNGQPAENYKNTQPIMDTDGSYFVYSKLNVQKSNWEAGNTFTCSVLHEGLKFHHTEKSLSHSPGKGSGGISQAVHAAHAEINEAGRGSGHHHHHH
notes: The limits of the leader are inferred as for m4; also called Fc(T252Y/T256E/H433K/N434F)-antigen
Regarding B6, the figures for the Kd in test [6] and in test [7] were 14.9 nM and 3 nM, respectively.
